Measured values published in IntAct's records for PubMed 24297912.

B1: Basigin (Homo sapiens), P35613-2 (parent)
chain: MAAALFVLLGFALLGTHGASGAAGTVFTTVEDLGSKILLTCSLNDSATEVTGHRWLKGGVVLKEDALPGQKTEFKVDSDDQWGEYSCVFLPEPMGTANIQLHGPPRVKAVKSSEHINEGETAMLVCKSESVPPVTDWAWYKITDSEDKALMNGSESRFFVSSSQGRSELHIENLNMEADPGQYRCNGTSSKGSDQAIITLRVRSHLAALWPFLGIVAEVLVLVTIIFIYEKRRKPEDVLDDDDAGSAPLKSSGQHQNDKGKNVRQRNSS

Variants of: B1
Conditions: with rh5_plaf7 RH5, Q8IFM5
rh5_plaf7 RH5, Q8IFM5, sequence (Q8IFM5 whole entry): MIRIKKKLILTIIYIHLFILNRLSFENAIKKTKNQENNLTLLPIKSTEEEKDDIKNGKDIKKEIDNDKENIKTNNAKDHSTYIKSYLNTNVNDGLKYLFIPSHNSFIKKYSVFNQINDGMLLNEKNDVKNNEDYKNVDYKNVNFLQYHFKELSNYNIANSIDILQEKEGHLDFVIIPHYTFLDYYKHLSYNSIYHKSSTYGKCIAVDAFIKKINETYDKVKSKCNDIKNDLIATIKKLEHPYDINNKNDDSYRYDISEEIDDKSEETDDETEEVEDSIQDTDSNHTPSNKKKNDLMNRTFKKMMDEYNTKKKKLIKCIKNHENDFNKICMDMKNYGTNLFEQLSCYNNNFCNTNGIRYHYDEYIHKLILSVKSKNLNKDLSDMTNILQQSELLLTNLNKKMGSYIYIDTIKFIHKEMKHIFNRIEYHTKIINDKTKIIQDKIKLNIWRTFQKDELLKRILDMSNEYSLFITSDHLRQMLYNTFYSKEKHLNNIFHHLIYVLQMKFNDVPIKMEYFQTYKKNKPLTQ
For F27L, the “effect of a mutation on the interaction” value was “decreasing interaction strength”. In the case of Q100K, the “effect of a mutation on the interaction” value is reported as “decreasing interaction strength”. For K75E, the “effect of a mutation on the interaction” value was “with no effect”. For D32E, the “effect of a mutation on the interaction” value was “with no effect”.
